In patent publication US20150266922A1:

Experiments:
[1] = molecular target: Dipeptidyl peptidase 9 (DPP9), recombinant wild-type (human) (UniProt Q86TI2); assay: cell-based or functional assay
[2] = molecular target: Dipeptidyl peptidase 9 (DPP9), recombinant wild-type (human) (UniProt Q86TI2); assay: enzyme kinetics, GP-AMC hydrolysis by 25 nM recombinant DPP9 with 0, 5 or 20 µM peptide
[3] = molecular target: Dipeptidyl peptidase 8 (DPP8), recombinant (human) (UniProt Q6V1X1); assay: cell-based or functional assay
Dipeptidyl peptidase 8 (DPP8), recombinant (human), sequence (Q6V1X1 whole entry, form in doubt): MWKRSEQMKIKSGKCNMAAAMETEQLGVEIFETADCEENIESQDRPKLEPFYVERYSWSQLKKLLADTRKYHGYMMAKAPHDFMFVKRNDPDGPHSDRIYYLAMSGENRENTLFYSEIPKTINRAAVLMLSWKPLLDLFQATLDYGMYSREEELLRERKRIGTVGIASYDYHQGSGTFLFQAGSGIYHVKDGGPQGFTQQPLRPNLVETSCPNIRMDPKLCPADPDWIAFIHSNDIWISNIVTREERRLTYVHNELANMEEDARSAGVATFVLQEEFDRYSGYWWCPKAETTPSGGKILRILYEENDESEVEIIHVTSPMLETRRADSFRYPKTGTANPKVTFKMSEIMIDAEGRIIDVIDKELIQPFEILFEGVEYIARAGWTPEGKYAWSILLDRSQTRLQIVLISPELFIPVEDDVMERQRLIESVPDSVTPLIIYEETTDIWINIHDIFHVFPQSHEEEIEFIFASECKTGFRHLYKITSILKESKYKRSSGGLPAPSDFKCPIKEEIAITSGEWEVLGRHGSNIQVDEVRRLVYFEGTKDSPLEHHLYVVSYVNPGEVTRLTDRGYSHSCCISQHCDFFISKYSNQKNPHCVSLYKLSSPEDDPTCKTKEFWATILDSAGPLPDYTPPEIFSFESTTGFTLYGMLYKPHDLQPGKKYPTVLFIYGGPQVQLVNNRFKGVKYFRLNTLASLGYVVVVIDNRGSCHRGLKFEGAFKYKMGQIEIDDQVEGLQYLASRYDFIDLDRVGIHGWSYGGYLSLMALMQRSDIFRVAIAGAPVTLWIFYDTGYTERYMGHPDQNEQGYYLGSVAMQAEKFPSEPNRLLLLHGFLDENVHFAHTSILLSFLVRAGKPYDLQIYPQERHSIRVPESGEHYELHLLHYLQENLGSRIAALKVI

[4] = molecular target: Dipeptidyl peptidase 9 (DPP9), recombinant wild-type (human) (UniProt Q86TI2); assay: enzyme kinetics, GP-AMC hydrolysis by recombinant DPP9
[5] = molecular target: Dipeptidyl peptidase 8 (DPP8), recombinant (human) (UniProt Q6V1X1); assay: enzyme kinetics, GP-AMC hydrolysis by recombinant DPP8
[6] = molecular target: Dipeptidyl peptidase 9 (DPP9), recombinant wild-type (human) (UniProt Q86TI2); assay: ratio of Ki values for DPP9, reference EIL peptide
[7] = molecular target: Dipeptidyl peptidase 8 (DPP8), recombinant (human) (UniProt Q6V1X1); assay: ratio of Ki values, DPP8 against DPP9

Dipeptidyl peptidase 9 (DPP9), recombinant wild-type (human), sequence (Q86TI2 other isoform, or with tags, fused parts or gaps limits assumed, form in doubt): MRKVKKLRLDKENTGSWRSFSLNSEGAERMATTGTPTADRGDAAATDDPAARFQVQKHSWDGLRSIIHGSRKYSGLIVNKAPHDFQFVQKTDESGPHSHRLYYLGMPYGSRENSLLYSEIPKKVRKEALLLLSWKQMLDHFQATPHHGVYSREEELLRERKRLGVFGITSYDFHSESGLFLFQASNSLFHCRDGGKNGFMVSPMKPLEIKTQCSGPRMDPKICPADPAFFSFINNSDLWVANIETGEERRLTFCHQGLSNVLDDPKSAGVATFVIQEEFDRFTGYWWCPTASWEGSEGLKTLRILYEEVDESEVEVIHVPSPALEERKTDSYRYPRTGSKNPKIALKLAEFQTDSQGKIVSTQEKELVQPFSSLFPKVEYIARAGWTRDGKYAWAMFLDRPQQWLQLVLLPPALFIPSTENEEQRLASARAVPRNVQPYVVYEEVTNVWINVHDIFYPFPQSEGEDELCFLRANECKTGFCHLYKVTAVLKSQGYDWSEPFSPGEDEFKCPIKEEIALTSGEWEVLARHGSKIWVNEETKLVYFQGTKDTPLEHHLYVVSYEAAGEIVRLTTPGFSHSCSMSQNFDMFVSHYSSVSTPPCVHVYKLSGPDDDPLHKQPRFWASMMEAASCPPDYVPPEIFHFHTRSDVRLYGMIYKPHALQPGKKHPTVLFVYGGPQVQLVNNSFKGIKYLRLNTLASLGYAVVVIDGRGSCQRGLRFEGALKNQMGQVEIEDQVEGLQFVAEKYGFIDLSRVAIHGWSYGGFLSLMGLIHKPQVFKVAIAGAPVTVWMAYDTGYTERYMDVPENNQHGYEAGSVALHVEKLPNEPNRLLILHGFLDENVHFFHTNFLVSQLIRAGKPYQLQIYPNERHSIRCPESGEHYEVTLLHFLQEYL

% DPP9 activity (Mean), 10 µM peptide [1]	Ki [2]	AMC release from GP-AMC in the unbound fraction (depleted lysates) [3]	AMC release from GP-AMC in the unbound fraction (depleted lysates) [1]	Ki [4]	Ki [5]	fold increased efficiency compared to the EIL peptide [6]	fold lower affinity compared to DPP9 [7]	Substance
24.1%	2000 nM							SLRFLFEG (SEQ ID NO: 37) (peptide)
		40%	40%					SUMO1 (from UniProt P63165 1-97)
10.9%				400 nM	3600 nM	18.5 fold	9 fold	SLRFLYEG (SEQ ID NO: 38) (peptide)
